Experimental findings from patent US20240199762A1 (PHILOGEN S P A, published 2024) are described below.

Assay [1] addresses T1, canine FAP (caFAP) extracellular domain (ECD) (domestic dog (Canis familiaris)).
T1 construct: also called caFAP-ECD
T1 chain: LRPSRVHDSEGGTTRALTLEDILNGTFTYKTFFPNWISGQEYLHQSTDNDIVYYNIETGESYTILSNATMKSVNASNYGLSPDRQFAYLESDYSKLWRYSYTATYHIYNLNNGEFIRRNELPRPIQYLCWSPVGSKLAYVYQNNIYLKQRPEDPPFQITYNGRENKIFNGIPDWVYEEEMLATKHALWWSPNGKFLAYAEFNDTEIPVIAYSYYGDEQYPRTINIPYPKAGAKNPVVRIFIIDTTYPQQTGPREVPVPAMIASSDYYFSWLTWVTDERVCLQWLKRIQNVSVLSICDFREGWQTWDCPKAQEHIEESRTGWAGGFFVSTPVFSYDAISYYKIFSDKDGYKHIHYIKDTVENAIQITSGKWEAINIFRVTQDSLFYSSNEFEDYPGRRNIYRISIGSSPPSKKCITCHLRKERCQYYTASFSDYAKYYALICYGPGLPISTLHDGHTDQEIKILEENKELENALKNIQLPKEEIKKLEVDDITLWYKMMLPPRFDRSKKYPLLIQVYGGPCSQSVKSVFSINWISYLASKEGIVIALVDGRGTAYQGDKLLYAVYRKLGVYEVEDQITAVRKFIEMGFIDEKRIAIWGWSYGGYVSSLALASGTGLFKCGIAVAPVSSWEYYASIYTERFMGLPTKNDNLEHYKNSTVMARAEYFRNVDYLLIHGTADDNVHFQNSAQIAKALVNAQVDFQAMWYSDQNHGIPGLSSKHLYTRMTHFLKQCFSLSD
Description: ELISA, 120 nM caFAP-ECD coated, antibody at 5 ug/mL. The method, then:
Cross-reactivity of the anti-hFAP antibodies with caFAP-ECD was tested using ELISA. 120 nM of caFAP-ECD was coated on Maxisorp plates overnight at 4° C. […] Specifically, the C5 antibody was employed in IgG2a format, while all other antibodies, including the 7NP2 antibody, were in IgG1 format. The differences between the IgG2a and IgG1 formats are not expected to affect binding to FAP. After 3 washes with PBS, binding of the antibodies to caFAP-ECD was detected using an anti-human or anti-murine antibody HRP conjugate.

For assay [2], the target named is T2, human FAP expressed on transduced cells (SKRC52-hFAP, HT-1080-hFAP) (human, UniProt Q12884 1-760).
T2 construct: whole, on cells; Also the target in SKRC52-hFAP tumor cryosections and in tumors of tumor-bearing mice; also called cell-expressed human FAP
T2 sequence (looked up): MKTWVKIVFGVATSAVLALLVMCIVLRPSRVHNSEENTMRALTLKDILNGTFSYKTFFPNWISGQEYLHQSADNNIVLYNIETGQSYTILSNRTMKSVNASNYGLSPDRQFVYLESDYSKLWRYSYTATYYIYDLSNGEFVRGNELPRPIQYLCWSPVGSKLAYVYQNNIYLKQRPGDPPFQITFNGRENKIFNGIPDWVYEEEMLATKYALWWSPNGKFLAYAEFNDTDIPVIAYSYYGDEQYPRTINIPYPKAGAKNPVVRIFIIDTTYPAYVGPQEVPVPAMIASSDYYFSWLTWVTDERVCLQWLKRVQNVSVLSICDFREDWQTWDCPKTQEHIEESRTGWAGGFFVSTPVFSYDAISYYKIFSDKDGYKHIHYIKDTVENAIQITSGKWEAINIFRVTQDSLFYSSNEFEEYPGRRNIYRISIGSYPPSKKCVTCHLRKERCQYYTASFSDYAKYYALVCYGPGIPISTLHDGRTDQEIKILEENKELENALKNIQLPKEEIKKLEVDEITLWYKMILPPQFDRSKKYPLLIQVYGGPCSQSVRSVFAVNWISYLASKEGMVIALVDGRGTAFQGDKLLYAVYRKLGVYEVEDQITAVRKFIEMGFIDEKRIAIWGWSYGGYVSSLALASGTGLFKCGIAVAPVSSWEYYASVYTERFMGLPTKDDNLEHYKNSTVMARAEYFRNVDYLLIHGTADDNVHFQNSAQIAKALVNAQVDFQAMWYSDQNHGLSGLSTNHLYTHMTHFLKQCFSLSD
Description: immunofluorescence on SKRC52-hFAP tumor cryosections, FITC conjugate at 10 ug/mL. The method, then: Immunofluorescence experiments were performed with 7NP2 and KSF (negative control), both in IgG1 format on cryosections of renal cell carcinoma SKRC52-hFAP tumor tissue slides, which were transduced to express human FAP. The 7NP2 and KSF IgG1 molecules were conjugated to FITC to allow detection. Cryostat sections (10 μm) were stained using the 7NP2 and KSF IgG1 conjugates at a final concentration of 10 μg/mL and detected with rabbit anti-FITC and goat anti-rabbit AlexaFluor488 antibody. Slides were mounted with fluorescent mounting medium and analyzed with a microscope (FIG. 5).

B1: anti-FAP antibody 7NP2 in IgG1 format (antibody, V domains shown)
VH: EVQLLESGGGLVQPGGSLRLSCAASGFTFSSYAMSWVRQAPGKGLEWVSAIGSVGGPTYYADSVKGRFTISRDNSKNTLYLQMNSLRAEDTAVYYCAKRLAWFDYWGQGTLVTVSS
VL: EIVLTQSPGTLSLSPGERATLSCRASQSVSSSYLAWYQQKPGQAPRLLIYGASSRATGIPDRFSGSGSGTDFTLTISRLEPEDFAVYYCQQSGKGPLTFGQGTKVEIKR
notes: also called 7NP2 IgG1; 7NP2(IgG1)
Consider B1, for which the binding result in assay [1] and in assay [2] was “binds” each time.
